In patent publication US20210214414A1 (Pfizer, published 2021):

Assays:
[1] = biological target: T1, Human/cynomolgus monkey SLIT2-D2 (human and cynomolgus monkey (100% …, UniProt O94813 271-479)); assay: SPR, ROBO2-Fc 2.2 captured by anti-human Fc on a C1 chip, SLIT2-D2 as analyte, 1:1 model
T1 construct: domain: D2; the crystallisation construct (271-479, His6) is kept as a separate molecule; also called Human and Cynomolgus Monkey SLIT2-D2; SLIT2 D2 domain
T1 sequence (looked up): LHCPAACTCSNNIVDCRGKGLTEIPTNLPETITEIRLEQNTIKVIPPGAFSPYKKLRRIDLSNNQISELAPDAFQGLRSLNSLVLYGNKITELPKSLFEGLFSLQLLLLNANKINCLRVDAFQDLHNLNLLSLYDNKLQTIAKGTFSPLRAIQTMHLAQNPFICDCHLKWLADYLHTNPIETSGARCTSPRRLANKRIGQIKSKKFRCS
Description: HBS-EP was used as a diluent. […] An 8 point 2-fold dilution series was performed on the SLIT2 ligands, ranging from 2 nM to 15.6 pM using HBS-EPB as the diluent. […] Association of the indicated SLIT2 ligand was followed for 120 s and dissociation monitored for 180 s. The apparent binding affinity was determined using a simple 1:1 interaction model of the kinetic rate constants.

Human SLIT2-N = biological target: T2, Human SLIT2-N (human, UniProt O94813 31-1121, limits assumed); assay: HTRF competition: d2-labelled human SLIT2-N binding to human ROBO2 on HEK293 cells; geometric mean, n=4; Table 2 species panel; geometric mean, n=4
T2 construct: domain: SLIT2-N (N terminal fragment); Soluble analyte in SPR, d2-labelled in HTRF, overexpressed on HEK293 cells in flow cytometry; also called human SLIT2-N (N terminal fragment)
T2 sequence (looked up): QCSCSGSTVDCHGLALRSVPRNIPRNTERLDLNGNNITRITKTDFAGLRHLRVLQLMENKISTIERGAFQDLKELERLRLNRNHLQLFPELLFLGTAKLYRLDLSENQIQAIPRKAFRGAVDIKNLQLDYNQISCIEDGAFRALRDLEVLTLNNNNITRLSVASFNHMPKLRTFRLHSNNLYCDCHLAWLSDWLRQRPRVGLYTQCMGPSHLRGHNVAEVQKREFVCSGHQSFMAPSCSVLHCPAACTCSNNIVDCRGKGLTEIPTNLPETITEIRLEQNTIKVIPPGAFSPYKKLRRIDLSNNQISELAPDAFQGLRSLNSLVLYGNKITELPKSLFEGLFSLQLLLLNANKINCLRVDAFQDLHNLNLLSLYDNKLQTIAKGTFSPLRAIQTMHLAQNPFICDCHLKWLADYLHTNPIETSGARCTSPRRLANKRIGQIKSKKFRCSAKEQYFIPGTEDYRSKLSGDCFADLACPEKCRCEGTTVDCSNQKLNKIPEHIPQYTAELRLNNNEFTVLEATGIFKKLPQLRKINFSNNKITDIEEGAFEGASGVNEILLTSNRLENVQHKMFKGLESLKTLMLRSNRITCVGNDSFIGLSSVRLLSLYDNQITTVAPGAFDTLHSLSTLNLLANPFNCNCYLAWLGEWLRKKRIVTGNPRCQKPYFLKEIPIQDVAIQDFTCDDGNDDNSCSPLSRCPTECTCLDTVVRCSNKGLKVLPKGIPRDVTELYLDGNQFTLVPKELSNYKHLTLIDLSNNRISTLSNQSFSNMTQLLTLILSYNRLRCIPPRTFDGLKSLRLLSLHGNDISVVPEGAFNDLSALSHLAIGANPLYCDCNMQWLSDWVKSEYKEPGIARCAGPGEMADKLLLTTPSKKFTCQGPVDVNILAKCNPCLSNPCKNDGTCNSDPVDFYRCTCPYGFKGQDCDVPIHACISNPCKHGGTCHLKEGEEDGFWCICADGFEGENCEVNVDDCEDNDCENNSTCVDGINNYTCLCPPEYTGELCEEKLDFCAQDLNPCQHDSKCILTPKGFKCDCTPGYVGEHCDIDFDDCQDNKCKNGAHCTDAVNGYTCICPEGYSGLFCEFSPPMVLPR
Description: (§1) After incubation, fluorescence at 665 nm and 620 nm was measured on an Envision multilabel plate reader. The HTRF Ratio was calculated as follows: fluorescence at 665 nm/fluorescence at 620 nm×10,000. […] The IC₅₀ for each SLITx-N was determined using an 11-point, 4-fold dilution series with a top concentration of 4000 nM.

[2] = biological target: T3, Cynomolgus monkey SLIT3-N (cynomolgus monkey, UniProt A0A2K5UAP4 33-1125); assay: HTRF competition: d2-labelled cynomolgus monkey SLIT3-N binding to human ROBO2 on HEK293 cells; geometric mean, n=3
T3 construct: domain: SLIT3-N; d2-labelled in the HTRF assay
T3 sequence: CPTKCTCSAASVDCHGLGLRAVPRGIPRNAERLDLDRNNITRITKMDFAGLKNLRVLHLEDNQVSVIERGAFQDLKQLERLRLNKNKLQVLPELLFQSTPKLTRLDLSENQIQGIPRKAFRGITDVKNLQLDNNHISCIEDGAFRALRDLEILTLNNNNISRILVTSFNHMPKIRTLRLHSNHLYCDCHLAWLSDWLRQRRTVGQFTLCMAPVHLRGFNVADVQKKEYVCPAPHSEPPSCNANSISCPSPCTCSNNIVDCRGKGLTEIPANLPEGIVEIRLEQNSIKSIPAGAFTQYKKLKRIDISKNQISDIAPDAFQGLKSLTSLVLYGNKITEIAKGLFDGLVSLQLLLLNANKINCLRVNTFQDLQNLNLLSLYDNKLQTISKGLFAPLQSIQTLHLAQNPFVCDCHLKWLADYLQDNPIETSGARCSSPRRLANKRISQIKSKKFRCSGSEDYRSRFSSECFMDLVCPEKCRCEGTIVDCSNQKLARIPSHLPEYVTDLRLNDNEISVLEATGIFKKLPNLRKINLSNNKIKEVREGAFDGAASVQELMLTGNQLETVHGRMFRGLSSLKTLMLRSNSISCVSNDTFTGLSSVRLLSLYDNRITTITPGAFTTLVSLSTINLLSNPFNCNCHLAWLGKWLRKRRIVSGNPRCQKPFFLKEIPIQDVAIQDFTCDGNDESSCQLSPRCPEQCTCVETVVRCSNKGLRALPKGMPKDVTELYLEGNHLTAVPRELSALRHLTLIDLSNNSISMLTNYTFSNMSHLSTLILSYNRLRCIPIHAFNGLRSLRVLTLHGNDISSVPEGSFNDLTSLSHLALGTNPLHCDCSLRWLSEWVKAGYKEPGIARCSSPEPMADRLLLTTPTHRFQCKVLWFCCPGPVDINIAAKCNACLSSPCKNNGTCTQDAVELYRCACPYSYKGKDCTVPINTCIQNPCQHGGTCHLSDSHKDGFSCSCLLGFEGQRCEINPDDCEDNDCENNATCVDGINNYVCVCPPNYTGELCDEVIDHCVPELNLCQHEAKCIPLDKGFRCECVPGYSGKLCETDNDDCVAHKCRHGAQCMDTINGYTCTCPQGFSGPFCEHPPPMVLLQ
Description: as §1

B1: ROBO2-Fc 2.2 (Fc fusion)
chain: SRLRQEDFPPRIVEHPSDVIVSKGEPTTLNCKAEGRPTPTIEWYKDGERVETDKDDPRSHRMLLPSGSLFFLRIVHGRRSKPDEGSYVCVARNYLGEAVSRNASLEVALLRDDFRQNPTDVVVAAGEPAILECQPPRGHPEPTIYWKKDKVRIDDKEERISIRGGKLMISNTRKSDAGMYTCVGTNMVGERDSDPAELTVFERGGSGGSEPKSSDKTHTCPPCPAPEAAGAPSVFLFPPKPKDTLMISRTPEVTCVVVDVSHEDPEVKFNWYVDGVEVHNAKTKPREEQYNSTYRVVSVLTVLHQDWLNGKEYKCKVSNKALPAPIEKTISKAKGQPREPQVYTLPPSREEMTKNQVSLTCLVKGFYPSDIAVEWESNGQPENNYKTTPPVLDSDGSFFLYSKLTVDKSRWQQGNVFSCSVMHEALHNHYTQKSLSLSPG
notes: Labelled with Alexa Fluor 647 in the flow cytometry assay; also called ROBO-Fc 2.2; ROBO2-Fc 2.2-AF647
Kd [1]: 0.293 nM | IC50 (Human SLIT2-N): 3.9 nM | IC50 [2]: 3.6 nM
